Reference: the supplement of paper PMC10567573
± gives the standard deviation.

Experiment: protein stability index of a GFP-peptide fusion (GPS, HEK-293T) (PSI 1-6); higher = more stable
[1] = treatment: DMSO, c terminus: a fixed tail appended
[2] = treatment: MLN4924 1 uM, 8 h, c terminus: a fixed tail appended
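Further: 24-mer peptide tiles fused after GFP, lentivirally expressed, FACS-sorted into six equal bins by GFP/DsRed ratio, decoded by Illumina sequencing, PSI is the read-weighted mean bin number.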

| Sequence | protein stability index [1] | protein stability index [2] | protein stability index (treatment: DMSO, c terminus: native) | protein stability index (treatment: MLN4924 1 uM, 8 h, c terminus: native) |
| --- | --- | --- | --- | --- |
| TELLAKITNTDVDCLKACQEQIEA [CCND2] | 4.45 ± 0.046 | 4.61 ± 0.32 |  |  |
| LTVNTEAQQLLREFEEATGEAGWG [FOXJ1] | 4.55 ± 0.14 | 4.62 ± 0.073 |  |  |
| SLKKGSLVKNLKDTLGLGKTRRKT [NCK2] | 3.96 ± 0.18 | 3.81 ± 0.31 |  |  |
| LAFLDKIKSVKESLQESVEDSLAT [IQUB] | 4.03 ± 0.45 | 3.77 ± 0.69 |  |  |
| VPSKPPMSLEPQNGTYAGPAPAFQ [ANKRD40] | 4.12 ± 0.41 | 4.25 ± 0.14 |  |  |
| NKATNTDHLTTVLYLQLAICSSLQ [C8orf76] | 3.4 ± 0.44 | 3.21 ± 0.64 |  |  |
| EKDLVGLAQIAEVLEMFDLRMMVE [RHOBTB1] | 2.46 ± 0.21 | 2.22 ± 0.38 |  |  |
| VSQQTGSPGKQPGENSDCHRDSSQ [ZNF8] | 5.31 ± 0.47 | 5.47 ± 0.21 |  |  |
| EMKEFSSQLAGQVNVEMDAAPGVD [KRT15] | 5.29 ± 0.24 | 5.07 ± 0.11 |  |  |
| VVSMTTVGYGDMYPVTIGGKIVGS [KCNA1] | 2.29 ± 0.36 | 2.14 ± 0.24 |  |  |
| FKMLDPDGKGKINKEYIKRLLMSQ [MYL5] | 2.41 ± 0.28 | 2.63 ± 0.3 |  |  |
| GGFGQVYKVRHVHWKTWLAIKCSP [RIPK4] | 2.35 ± 0.85 | 2.05 ± 0.32 |  |  |
| FYFKLTDLYKKVKKNSSPPLSLYG [CRY1] | 2.7 ± 0.51 | 2.69 ± 0.49 |  |  |
| IGWFPSNYVLEEVDEAAAESPSFL [NCK2] | 3.93 ± 0.24 | 4.13 ± 0.23 |  |  |
| FRHDRLRFRDFVDALEDSLEEVAV [PBXIP1] | 3.04 ± 0.47 | 3.48 ± 0.3 |  |  |
| MYFSSLFPYVVLACFLVRGLLLRG [SLC6A17] | 2.9 ± 0.65 | 2.65 ± 0.72 |  |  |
| KSCQACRLRKCYEVGMVKCGSRRE [ESR2] | 2.35 ± 0.43 | 3.1 ± 0.33 |  |  |
| YFVSESFEDAKEKMREFTKTIKRP [TPH1] | 3.15 ± 0.19 | 3.41 ± 0.14 |  |  |
| HTFAGDDCQAGLNFADEDEAQAFR [WAS] | 5.26 ± 0.18 | 4.92 ± 0.38 |  |  |
| ILLQEIPIRSISLRSCYFSDPDCS [FBXO39] | 2.55 ± 0.54 | 2.91 ± 0.72 |  |  |
| IIKICDFGFAQILIPGDAYTDYVA [CDKL4] | 2.6 ± 0.59 | 2.81 ± 0.95 |  |  |
| KQKVMTHVSNGCQLLLGVKGHAF [JUNB] |  |  | 2.16 ± 0.21 | 2.23 ± 0.21 |
| SFSEETEKKFEHFSGLLNNQLSPQ [LOXL2] | 4.09 ± 0.47 | 4.56 ± 0.18 |  |  |

| Sequence | protein stability index [1] | protein stability index [2] | protein stability index (treatment: DMSO, c terminus: native) | protein stability index (treatment: MLN4924 1 uM, 8 h, c terminus: native) |
| --- | --- | --- | --- | --- |
| GSGQNEESPRKRKKATEAIDSLRK [FBXO28] | 5.11 ± 0.2 | 5.17 ± 0.2 |  |  |
| FHYIIEQGVCYLVLCEAAFPKKLA [SEC22B] | 3.01 ± 0.71 | 2.68 ± 0.63 |  |  |
| GYVPSNYVERKNSLKKGSLVKNLK [NCK2] | 3.96 ± 0.16 | 3.89 ± 0.19 |  |  |
| QLVSFQKLKLTNNHLDPFGHIILN [TBX5] | 2.33 ± 0.39 | 2.23 ± 0.33 |  |  |
| TSFFDSDEDDSTSRFSSSTEQSSA [DVL3] | 5.34 ± 0.085 | 5.25 ± 0.22 |  |  |
| EEVAKAVLEQEETAAASRERQEEQ [EPB41L3] | 5.71 ± 0.078 | 5.63 ± 0.19 |  |  |
| SQPPKKKPKTTNIELQGVPNDEVH [RBBP5] | 5.32 ± 0.2 | 5.28 ± 0.14 |  |  |
| AYEYEREGLYEQAFQLLRRFVQAE [TRADD] | 2.27 ± 0.31 | 2.48 ± 0.26 |  |  |
| ASKSKGAAVKLADFGLAIEVQGDQ [CAMK2D] | 4.13 ± 0.37 | 4.37 ± 0.3 |  |  |
| KKQQELTAAVLGLICEGLYPASIV [ZBED1] | 2.97 ± 0.63 | 3.02 ± 0.58 |  |  |
| DAPPVELQLLHECSPSQMDLLCAQ [FANCE] | 4.31 ± 0.054 | 4.63 ± 0.25 |  |  |
| SEREANDALNAYVCKGLPQHEEIC [INTS3] | 4.56 ± 0.23 | 4.52 ± 0.25 |  |  |
| DTRRLITKPQNLNDAYGPPSNFLE [SNX3] | 3.69 ± 0.17 | 3.88 ± 0.17 |  |  |
| TGKWYELQDLQVTDILPQMITLSE [USP39] | 2.51 ± 0.29 | 2.85 ± 0.18 |  |  |
| VAPLADGKVAVGQDDLTVVLNEEG [VPS39] | 5.46 ± 0.18 | 5.59 ± 0.17 |  |  |
| ALKLFPVQPCSAVHLLLKKVLFAL [FAM189A2] | 2.39 ± 0.17 | 2.35 ± 0.35 |  |  |
| YVTPSDFDQLKQFLTFDKQVLRFY [EFHC1] | 2.03 ± 0.32 | 2.28 ± 0.29 |  |  |
| IREKSRLFDTKHDVYSFAIVIWGV [RIPK4] | 3.27 ± 0.68 | 2.9 ± 0.83 |  |  |
| DSEFSMQEPMVPAKLGTQAEKDRR [PPFIA4] | 4.9 ± 0.77 | 5.646 ± 0.045 |  |  |
| SQEAGLPAGAGPSPTFPALGIGMD [SEPHS2] | 4.64 ± 0.22 | 4.65 ± 0.25 |  |  |
| LALLPAAWEDSHGSQDGHFVLSCS [SCNN1D] | 2.92 ± 0.083 | 2.9 ± 0.34 |  |  |
| HRILLLAISLTKCLESTKLLADLK [MIA2] | 2.73 ± 0.35 | 3.339 ± 0.011 |  |  |
| KVLEEGGFFEEKGAIFCPPCYDVR [PDLIM7] | 2.96 ± 0.29 | 2.92 ± 0.36 |  |  |

| Sequence | protein stability index [1] | protein stability index [2] | protein stability index (treatment: DMSO, c terminus: native) | protein stability index (treatment: MLN4924 1 uM, 8 h, c terminus: native) |
| --- | --- | --- | --- | --- |
| IEKWVILEKDFSIYGGELGPMMKL [ACSBG2] | 2.56 ± 0.71 | 2.38 ± 0.44 |  |  |
| WDPNTGFDLNNLDPELKNLFDMCG [WASL] | 3.05 ± 0.36 | 3.1 ± 0.37 |  |  |
| TFQNSVFVATFLRYAVVLNATWLV [SCD] | 3.01 ± 0.34 | 3.43 ± 0.43 |  |  |
| ARASEGSDSGSDKSLEGGGTAFDA [SMG5] | 5.48 ± 0.3 | 5.37 ± 0.45 |  |  |
| PLTSVCYPQDLPRPLRSREFPQFE [TRAF3IP2] | 3.75 ± 0.27 | 3.62 ± 0.4 |  |  |
| CCSRYLCMGAMSLFLPCLLCYPPA [SPRY1] | 2.82 ± 0.47 | 2.58 ± 0.63 |  |  |
| EDLAQKLNLEEDRIQIWFQNRRAK [HESX1] | 4.12 ± 0.55 | 4.11 ± 0.47 |  |  |
| KSDKALMMLFNDGTFQVNFYHDHT [PLK2] | 1.86 ± 0.32 | 2.25 ± 0.14 |  |  |
| PGYLPGAMPPYGQGPPMVPPYQGG [ZNF207] | 3.57 ± 0.2 | 3.42 ± 0.2 |  |  |
| FFSKRFKSAAMLAVFAVSAVVHEY [SOAT1] | 2.35 ± 0.9 | 3.06 ± 0.41 |  |  |
| AALSASMASLLEDLSHIEGLSQAP [SERTAD1] | 2.81 ± 0.22 | 2.76 ± 0.26 |  |  |
| ARCTAGTLHNLSHHREGLLAIFKS [CTNNB1] | 2.48 ± 0.19 | 2.45 ± 0.19 |  |  |
| AYDLSSVIASGSSVGHNNLIPLAN [CARM1] | 3.23 ± 0.4 | 3.09 ± 0.28 |  |  |
| RIDELIESGKEEGMKIDLIDGKGR [KMT5A] | 4.96 ± 0.23 | 4.85 ± 0.33 |  |  |
| MGFAAKAMKSVHENMDLNKIDDLM [CHMP4C] | 3.59 ± 0.32 | 3.48 ± 0.3 |  |  |
| AAGYIQCMHEVHTFVSTCQAIDAT [HES6] | 1.93 ± 0.6 | 2.12 ± 0.37 |  |  |
| VGFMWRQRGRVISLWERLEFVNGW [MCOLN1] | 2.59 ± 0.65 | 3.05 ± 0.62 |  |  |
| LHMSQRERTWPPPAMSPYWRTWMT [C22orf15] | 2.31 ± 0.24 | 2.56 ± 0.37 |  |  |
| FEGDMGAAGGDGELGSPLRRSISS [PSD2] | 4.81 ± 0.2 | 4.94 ± 0.13 |  |  |
| TDVQKKKLVDAIVSGDTSKLMKIL [RIPK4] | 2.78 ± 0.73 | 2.77 ± 0.31 |  |  |
| RRTRPRHHHGRSRPDRSSQGGSLP [CHGB] | 4.93 ± 0.36 | 5.07 ± 0.23 |  |  |
| SVIKNYEDHFPLLFSEASECMLLV [MAGEA10] | 3.3 ± 0.74 | 2.33 ± 0.046 |  |  |
| MASFPPRVNEKEIVRLRTIGELLA [WSB1] | 2.18 ± 0.3 | 2.14 ± 0.13 |  |  |

| Sequence | protein stability index [1] | protein stability index [2] | protein stability index (treatment: DMSO, c terminus: native) | protein stability index (treatment: MLN4924 1 uM, 8 h, c terminus: native) |
| --- | --- | --- | --- | --- |
| FSLFGDISVLQQQGSLSNTYLSKV [FBXO33] | 2.12 ± 0.38 | 2.13 ± 0.096 |  |  |
| LIANIVHDGKPSEGSYRIHVLHHG [USP39] | 2.21 ± 0.2 | 2.19 ± 0.25 |  |  |
| RSYIKLFQAPCQRCGKFLQDGLPP [MED27] | 2.19 ± 0.17 | 2 ± 0.1 |  |  |
| FLDNGYGHCLLDKPEAPLHLPVTF [ADAMTS4] | 2.07 ± 0.37 | 2.16 ± 0.14 |  |  |
| NARRKLKGAILTTMLATRNFSAAK [CAMK2B] | 3.08 ± 0.33 | 3.15 ± 0.36 |  |  |
| YLNYYQGMLDVADESLTDLEAQPY [P3H4] | 2.8 ± 0.15 | 2.81 ± 0.14 |  |  |
| KLLDHDNVKYLKKILDELEKVLDQ [GDAP1] | 2.42 ± 0.56 | 2.32 ± 0.47 |  |  |
| KSEGQKIPKVELQISIYGVKILEP [GULP1] | 2.84 ± 1 | 2.3 ± 1.1 |  |  |
| ANNDHTVLSLACAGGHLAVVELLL [ANKRD17] | 2.41 ± 0.25 | 2.42 ± 0.24 |  |  |
| SQELPPPDPGPSPEASHLRFRRFR [ZNF263] | 4.76 ± 0.21 | 5.14 ± 0.12 |  |  |
| LRCKLAAFYRLADLFGWSQLIYNH [ADD1] | 2.89 ± 0.49 | 2.78 ± 0.37 |  |  |
| LGPPLVRKRIHDSRVAGFNPALQL [TOR1AIP2] | 3.07 ± 0.28 | 3.03 ± 0.26 |  |  |
| TIQKQLKDHSCKDNIREAFQIYDK [EFHC1] | 3.22 ± 0.13 | 3.13 ± 0.13 |  |  |
| CLGLSYDGLLGDNQIMPKTGFLII [MAGEA6] | 3.01 ± 0.6 | 2.49 ± 0.44 |  |  |
| IRSSFISSLSFFLKKMGKRLDYLN [FBXO39] | 2.71 ± 0.61 | 2.81 ± 0.56 |  |  |
| TASFRTSKYLLEEWFQNCYARYHQ [TEKT4] | 1.89 ± 0.21 | 2.22 ± 0.24 |  |  |
| RVQGVLRGRAREREQLQAEASERF [HES6] | 4.39 ± 0.32 | 4.48 ± 0.25 |  |  |
| VYSDHTNTNNLTFLMDLPSAGRSM [RNF180] | 2.29 ± 0.45 | 2.79 ± 0.42 |  |  |
| MKQGGAALEGSALANGRALSAGSP [DLX1] | 4.67 ± 0.29 | 4.72 ± 0.13 |  |  |
| RVLRGRPGAGSRRRGRMALCGQAA [FBXO33] | 4 ± 0.18 | 4.74 ± 0.22 |  |  |
